According to patent publication JP2022109630A (dated 2022):

Experiments:
Experiment in all cases: ELISA, immobilised recombinant L7/L12 (10 ng/mL), antibody 10 ug/mL
[1] = target: T1, サルモネラ菌(SE)のリボソームタンパク質L7/L12 (サルモネラ菌 (Salmonella enteritidis))
T1 construct: also called Salmonella enteritidis ribosomal protein L7/L12; SE L7/L12

[2] = target: T2, クラミジア・トラコマチス(CT)のリボソームタンパク質L7/L12 (クラミジア・トラコマチス (Chlamydia trachomatis))
T2 construct: also called Chlamydia trachomatis ribosomal protein L7/L12; CT L7/L12

淋菌(NG)のリボソームタンパク質L7/L12 = target: T3, 淋菌(NG)のリボソームタンパク質L7/L12 (淋菌 (Neisseria gonorrhoeae))
T3 construct: also called Neisseria gonorrhoeae ribosomal protein L7/L12; NG L7/L12

[3] = target: T4, 肺炎マイコプラズマ(MP)のリボソームタンパク質L7/L12 (肺炎マイコプラズマ (Mycoplasma pneumoniae))
T4 construct: also called Mycoplasma pneumoniae ribosomal protein L7/L12; MP L7/L12

緑膿菌(PA)のリボソームタンパク質L7/L12 = target: T5, 緑膿菌(PA)のリボソームタンパク質L7/L12 (緑膿菌 (Pseudomonas aeruginosa))
T5 construct: also called Pseudomonas aeruginosa ribosomal protein L7/L12; PA L7/L12

[4] = target: T6, 髄膜炎菌(NM)のリボソームタンパク質L7/L12 (髄膜炎菌 (Neisseria meningitidis))
T6 construct: also called Neisseria meningitidis ribosomal protein L7/L12; NM L7/L12

[5] = target: T7, カンピロバクター・ジェジュニ(CJ)のリボソームタンパク質L7/L12 (カンピロバクター・ジェジュニ (Campylobacter jejuni))
T7 construct: also called Campylobacter jejuni ribosomal protein L7/L12; CJ L7/L12

[6] = target: T8, モラキセラ菌(MC)のリボソームタンパク質L7/L12 (モラキセラ菌 (Moraxella catarrhalis))
T8 construct: also called Moraxella catarrhalis ribosomal protein L7/L12; MC L7/L12

[7] = target: T9, 百日咳菌(BP)のリボソームタンパク質L7/L12 (百日咳菌 (Bordetella pertussis))
T9 construct: also called Bordetella pertussis ribosomal protein L7/L12; BP L7/L12

[8] = target: T10, クレブシエラ・ニューモニエ(KP)のリボソームタンパク質L7/L12 (クレブシエラ・ニューモニエ (Klebsiella pneumoniae))
T10 construct: also called 肺炎桿菌; Klebsiella pneumoniae ribosomal protein L7/L12

[9] = target: T11, インフルエンザ菌(HI)のリボソームタンパク質L7/L12 (インフルエンザ菌 (Haemophilus influenzae))
T11 construct: also called Haemophilus influenzae ribosomal protein L7/L12; HI L7/L12

[10] = target: T12, リステリア・モノサイトゲネス(LM)のリボソームタンパク質L7/L12 (リステリア・モノサイトゲネス (Listeria monocytogenes))
T12 construct: also called Listeria monocytogenes ribosomal protein L7/L12; LM L7/L12

[11] = target: T13, 溶連菌(SPY)のリボソームタンパク質L7/L12 (溶連菌 (Streptococcus pyogenes))
T13 construct: also called Streptococcus pyogenes ribosomal protein L7/L12; SPY L7/L12

[12] = target: T14, 肺炎球菌(SP)のリボソームタンパク質L7/L12 (肺炎球菌 (Streptococcus pneumoniae))
T14 construct: also called Streptococcus pneumoniae ribosomal protein L7/L12; SP L7/L12

[13] = target: T15, 肺炎クラミジア(CP)のリボソームタンパク質L7/L12 (肺炎クラミジア (Chlamydia pneumoniae))
T15 construct: also called Chlamydia pneumoniae ribosomal protein L7/L12; CP L7/L12

[14] = target: T16, 黄色ブドウ球菌(SA)のリボソームタンパク質L7/L12 (黄色ブドウ球菌 (Staphylococcus aureus))
T16 construct: also called Staphylococcus aureus ribosomal protein L7/L12; SA L7/L12

Measured: absorbance at 450 nm

B1: 汎用性抗体A(PA51B2) (antibody, V domains shown)
VH: QVQLQQPGSVLVRPGASVKLSCKPSGYTFTGSWMHWTKQRPGQGLEWIGEIHPYSGNTNYNEKFRVKATLTVDTSSSTTYVDLSSLTSDDSAVYYCASGDFDAGFTYWGQGTLVTVSA
VL: DIVLTQSPASLAVSLGRRATISCKASQSVDYDGDSYMNWYQQKPGQPPKLLIYVASNLESGIPARFSGSGSGTDFTLNIHPVEEEDAATYYCQQTNEDPFTFGAGTKLELK
notes: also called PA51B2; general-purpose antibody A
≥ 0.3 absorbance (450 nm): all assays above

B2: 汎用性抗体C(CP141A190.1) (antibody, V domains shown)
VH: QVQLQQPGAELVKPGASVKLSCKTSGYNFTSNWIHWVKQRPGQGLEWIGEINPSNGRANYNEKFKNKATLTVDKSSSTAFMHLSSLTSEDSAVYFCSRGDFDEGFTYWGQGTLVTVSA
VL: QIVLTQSPAIMSASLGERVTMTCTASSNVNSDYLHWYQQKPGSSPRLWIYTTSNLASGVPTRFSGNGSGTSYSLTISSMEAEDAATYYCHQYHRSPRTFGGGTKLEIK
notes: also called CP141A190.1; general-purpose antibody C
≥ 0.3 absorbance (450 nm): all assays above
